The text below walks through data of article PMC11497264 (2024).

Bridge positions count the residues as written; N and C are the ends.

Assay [1] deals with T1, human glucose-regulated protein GRP78 (human, UniProt P11021 19-654). The experiment in a line: SPR. A general note: Surface plasmon resonance follows binding to a sensor surface in real time, without labels.
The target of assay [2] is T1, human glucose-regulated protein GRP78. The experiment in a line: SPR. The source holds these as a separate data set.
The target is the same in assay [3]. The experiment in a line: SPR; two-state model, kd1.
Assay [4] shares this target. The experiment in a line: SPR; two-state reaction model.

T1 sequence (P11021 19-654): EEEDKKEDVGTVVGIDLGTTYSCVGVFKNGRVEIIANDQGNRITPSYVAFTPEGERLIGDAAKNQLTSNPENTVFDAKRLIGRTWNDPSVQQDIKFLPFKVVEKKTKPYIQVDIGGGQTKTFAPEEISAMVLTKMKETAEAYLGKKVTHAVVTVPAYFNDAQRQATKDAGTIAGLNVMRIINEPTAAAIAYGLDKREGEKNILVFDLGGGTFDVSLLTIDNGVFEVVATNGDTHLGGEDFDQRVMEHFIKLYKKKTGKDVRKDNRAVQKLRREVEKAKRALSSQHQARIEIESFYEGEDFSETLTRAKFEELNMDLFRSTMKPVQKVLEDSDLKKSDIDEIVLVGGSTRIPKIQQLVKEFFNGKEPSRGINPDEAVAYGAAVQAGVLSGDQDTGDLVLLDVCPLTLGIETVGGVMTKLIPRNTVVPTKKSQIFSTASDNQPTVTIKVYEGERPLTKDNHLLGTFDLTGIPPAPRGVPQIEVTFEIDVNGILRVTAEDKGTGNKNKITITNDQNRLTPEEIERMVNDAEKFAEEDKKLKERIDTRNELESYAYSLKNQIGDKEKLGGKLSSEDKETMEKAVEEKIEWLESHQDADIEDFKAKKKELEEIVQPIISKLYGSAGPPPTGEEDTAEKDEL

B1: LCP W, loop-derived cyclic peptide based on spike residues 480-488 of the Wuhan strain (peptide)
peptide: H-CNGVEGFNC-NH2
modifications: disulfide 1-9
SMILES: CC(C)[C@@H]1NC(=O)CNC(=O)[C@H](CC(N)=O)NC(=O)[C@@H](N)CSSC[C@@H](C(N)=O)NC(=O)[C@H](CC(N)=O)NC(=O)[C@H](Cc2ccccc2)NC(=O)CNC(=O)[C@H](CCC(=O)O)NC1=O
Usually koff stands for the first-order rate constant of dissociation. A high value points to a short-lived complex. In general, Kd refers to a measure of binding affinity in units of concentration. High values mean lower affinity, low ones higher affinity. With B1, the koff in assay [1] came out at 0.43 s⁻¹. The same molecule came in with a Kd in assay [2] of 259 µM.

B2: Pep42, 13-mer cyclopeptide (peptide)
peptide: H-CTVALPGGYVRVC-NH2
modifications: disulfide 1-13
SMILES: CC(C)C[C@@H]1NC(=O)[C@H](C)NC(=O)[C@H](C(C)C)NC(=O)[C@H]([C@@H](C)O)NC(=O)[C@@H](N)CSSC[C@@H](C(N)=O)NC(=O)[C@H](C(C)C)NC(=O)[C@H](CCCNC(=N)N)NC(=O)[C@H](C(C)C)NC(=O)[C@H](Cc2ccc(O)cc2)NC(=O)CNC(=O)CNC(=O)[C@@H]2CCCN2C1=O
The molecule B2 had an off-rate (koff) in assay [3] of 0.678 s⁻¹. In assay [4], this molecule gave a Kd of 3430 µM.
